Measured values published in article PMC7975240.

Molecular target: SARS-CoV-2 spike trimer (1–1208 aa) (SARS-CoV-2) (UniProt P0DTC2)
Assay: SPR

In the case of “Toll-like receptor 4 (TLR4) (from UniProt O00206 24-839)”, the Kd is reported as 300 nM.
